B1: RclA (Escherichia coli K-12) (protein)
chain: MNKYQAVIIGFGKAGKTLAVTLAKAGWRVALIEQSNAMYGGTCINIGCIPTKTLVHDAQQHTDFVRAIQRKNEVVNFLRNKNFHNLADMPNIDVIDGQAEFINNHSLRVHRPEGNLEIHGEKIFINTGAQTVVPPIPGITTTPGVYDSTGLLNLKELPGHLGILGGGYIGVEFASMFANFGSKVTILEAASLFLPREDRDIADNIATILRDQGVDIILNAHVERISHHENQVQVHSEHAQLAVDALLIASGRQPATASLHPENAGIAVNERGAIVVDKRLHTTADNIWAMGDVTGGLQFTYISLDDYRIVRDELLGEGKRSTDDRKNVPYSVFMTPPLSRVGMTEEQARESGADIQVVTLPVAAIPRARVMNDTRGVLKAIVDNKTQRMLGASLLCVDSHEMINIVKMVMDAGLPYSILRDQIFTHPSMSESLNDLFSLVK

Tests used:
[1] = system: glutathione reductase (GR); assay: stopped-flow, NAD; assay type: biochemical; conditions: read-out: apparent KM; 180 µM NAD(P)H, 10 nM enzyme, 50 to 250 µM HOSCN, 100 mM sodium phosphate pH 7.4, aerobic
purified protein = substrate: O=S(=O)(O)CCNCl; assay: purified protein; conditions: 100 µM NADH, 10 µM enzyme, 20 mM HEPES, 100 mM NaCl pH 7, anaerobic

Molecule	Km [1]	Km (purified protein)	kcat (purified protein)
N#CSO [HOSCN, hypothiocyanous acid]	81 µM	–	–
B1	–	12700 µM	33 s⁻¹

From paper PMC9335216 (Proceedings of the National Academy of Sciences of the …, 2022)
